Assay results as given in patent US20160122431A1 (MAYO FOUNDATION FOR MEDICAL EDUCATION AND RESEARCH, published 2016).

Tests used:
[1] = target: T1, human B7-DC (human, UniProt Q9BQ51 20-273); experiment: flow cytometry on Ltk cells transiently transfected with human B7-DC
T1 construct: whole, on cells; also called hB7.DC; human B7-DC orthologue
T1 sequence (looked up): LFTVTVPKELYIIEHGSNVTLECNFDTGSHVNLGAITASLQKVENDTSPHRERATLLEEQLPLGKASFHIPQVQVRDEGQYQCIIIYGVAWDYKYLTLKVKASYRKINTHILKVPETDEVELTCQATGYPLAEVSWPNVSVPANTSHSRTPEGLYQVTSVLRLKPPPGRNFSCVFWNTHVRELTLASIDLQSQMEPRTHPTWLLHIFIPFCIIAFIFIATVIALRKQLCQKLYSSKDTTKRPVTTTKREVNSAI
Excerpt: Furthermore, the level of sHIgM12 binding to L-cells was positively correlated with the amount of B7-DC plasmid used in the transfection.

[2] = target: T2, murine B7-DC (murine, UniProt Q9WUL5 20-247); experiment: cell-based or functional assay
T2 sequence (looked up): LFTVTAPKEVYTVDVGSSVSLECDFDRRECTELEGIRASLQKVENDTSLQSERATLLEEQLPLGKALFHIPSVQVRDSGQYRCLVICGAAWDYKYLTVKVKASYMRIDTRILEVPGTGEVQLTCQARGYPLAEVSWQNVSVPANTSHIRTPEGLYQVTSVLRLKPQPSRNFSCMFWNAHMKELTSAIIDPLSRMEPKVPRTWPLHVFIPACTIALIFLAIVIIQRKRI

binding result [1]: binds
GFP+, CD11c+ DC recovered from draining lymph nodes after adoptive transfer [2]: 5 fold
IL-12 p70 release by DC (ELISA), against LPS [2]: ~3 fold
ability of lymph node DC to induce an antigen-specific T cell response [2]: 10 fold
B1: sHIgM12 (human monoclonal IgM antibody, pentameric) (antibody)
heavy: QVQLQESGPGLLKPSETLSLTCTVSGGSVSLYYWSWIRQSPGKEPEWIGYIYSSGSTDYNPSLRSRVTISLDTSNNRFSLNLRSVTAADTAVYWCARSASIRGWFDPWGQGTLVTVSSGSASAPTLFPLVSCENSPSDTSSVAVGCLAQDFLPDSITFSWKYKNNSDISSTRGFPSVLRGGKYAATSQVLLPSKDVMQGTDEHVVCKVQHPNGNKEKNVPLPVIAELPPKVSVFVPPRDGFFGNPRKSKLICQATGFSPRQIQVSWLREGKQVGSGVTTDQVQAEAKESGPTTYKVTSTLTIKESDWLSQSMFTCRVDHRGLTFQQNASSMCVPDQDTAIRVFAIPPSFASIFLTKSTKLTCLVTDLTTYDSVTISWTRQNGEAVKTHTNISESHPNATFSAVGEASICEDDWNSGERFTCTVTHTDLPSPLKQTISRPKGVALHRPDVYLLPPAREQLNLRESATITCLVTGFSPADVFVQWMQRGQPLSPEKYVTSAPMPEPQAPGRYFAHSILTVSEEEWNTGETYTCVVAHEALPNRVTERTVDKSTGKPTLYNVSLVMSDTAGTCY
light: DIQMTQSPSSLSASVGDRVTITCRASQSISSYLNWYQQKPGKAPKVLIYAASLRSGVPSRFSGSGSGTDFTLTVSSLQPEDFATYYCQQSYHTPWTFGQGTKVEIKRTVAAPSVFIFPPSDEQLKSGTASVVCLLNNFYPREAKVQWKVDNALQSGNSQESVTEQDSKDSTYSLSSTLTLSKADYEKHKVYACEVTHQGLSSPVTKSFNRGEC
notes: IgM/kappa purified from human patient serum; A J chain is not mentioned; also called B7-DC cross-linking antibody; sHIgM12 antibody
